This assay deals with T1, Human serum albumin (human, UniProt P02768 25-609).
T1 construct: Bought purified protein, injected as the analyte in SPR; also called HSA; Human albumin, ChromPure (Jackson ImmunoResearch)
Nature of the assay: SPR (Biacore), antibody captured on the chip, HSA as analyte, 25 C, 1:1 model.

Numbering of substitutions follows the chain as printed.

B1: 645gL4gH5 Fab-A26 BYbe wt (bispecific antibody, part only; not given: A26 dsscFv, linker, CH1, CL, V domains shown, not shown: another chain or arm of the molecule; a dimerising Fc or GST; small tags and cut ends)
VH: EVQLLESGGGLVQPGGSLRLSCAVSGIDLSNYAINWVRQAPGKQLEWIGIIWASGTTFYATWAKGRFTISRDNSKNTVYLQMNSLRAEDTAVYYCARTVPGYSTAPYFDLWGQGTLVTVSS
VL: DIQMTQSPSSVSASVGDRVTITCQSSPSVWSNFLSWYQQKPGKAPKLLIYEASKLTSGVPSRFSGSGSGTDFTLTISSLQPEDFATYYCGGGYSSISDTTFGGGTKVEIK
B1 returned an equilibrium dissociation constant (Kd) of 1.61 nM, a koff of 0.00025 s⁻¹ and a kon of 156000 M⁻¹ s⁻¹.

B2: 645CDR-2109FW Fab nh (Fab, V domains shown)
VH: B1 VH with L5V, Q13K, V24A, Q44G, R71V, N73K, S74A, T77S, V78A, A96T
VL: B1 VL with V11L, A44V, S66T, F72Y, F84V, Y88F, G103Q, V107L
notes: also called 2109FW/645CDR Fab nh; #3
The molecule B2 yielded a Kd of 1.52 nM, an off-rate constant (koff) of 0.000227 s⁻¹ and a kon of 150000 M⁻¹ s⁻¹.

B3: 645CDR-497FW Fab-A26 ds HL BYbe (bispecific antibody, part only; not given: A26 dsscFv, linker, CH1, CL, V domains shown, not shown: another chain or arm of the molecule; a dimerising Fc or GST; small tags and cut ends)
VH: EVQLVESGGGLVKPGGSLRLSCAASGIDLSNYAINWVRQAPGKGLEWVGIIWASGTTFYATWAKGRFTISRDDSKNTLYLQMNSLKTEDTAVYYCTTTVPGYSTAPYFDLWGQGTLVTVSS
VL: B1 VL with D1A, M4L, V11L, G103Q
As to B3, the Kd was 1.23 nM, the koff was 0.000186 s⁻¹ and the kon worked out at 151000 M⁻¹ s⁻¹.

B4: 645CDR-497FW Fab nh (Fab, V domains shown)
VH: B3 VH
VL: B1 VL with D1A, M4L, V11L, G103Q
notes: also called 497FW/645CDR Fab nh; 645CDR -497FW/645CDR Fab nh
As to B4, binding was characterised by a dissociation constant (Kd) of 4.63 nM, the koff came to 0.000601 s⁻¹ and the kon was 130000 M⁻¹ s⁻¹.

B5: 645CDR-2109FW Fab-A26 ds HL BYbe (bispecific antibody, part only; not given: A26 dsscFv, linker, CH1, CL, V domains shown, not shown: another chain or arm of the molecule; a dimerising Fc or GST; small tags and cut ends)
VH: B3 VH with V48I, R71V, D73K, S74A, T77S, L78A, K86R, T87A, T97R
VL: B1 VL with V11L, A44V, S66T, F72Y, F84V, Y88F, G103Q, V107L
Molecule B5 showed a dissociation constant (Kd) of 4.74 nM, a koff of 0.000651 s⁻¹ and a kon of 137000 M⁻¹ s⁻¹.

Source of the values: patent publication US20210324111A1 (UCB, published 2021).
